For two substances, Kd and koff results are on record in article PMC8166883.

The target in assay [1] is FLAG-tagged human vascular endothelial growth factor-A (FLAG-hVEGF-A) (human) (UniProt P15692). Kind of assay: SPR. (SPR reads the build-up and loss of mass on a sensor chip optically.)
The target in assay [2] is FLAG-tagged human tumor necrosis factor α (FLAG-hTNFα) (human) (UniProt P01375). Kind of assay: SPR.

Usually Kd stands for the concentration at which binding is half-saturated. Low values mean a tighter complex, high ones a looser complex. One may read the koff as a measure of how fast the partners let go of each other.

FLAG-tagged human tumor necrosis factor α (FLAG-hTNFα) (human), sequence (P01375 whole entry): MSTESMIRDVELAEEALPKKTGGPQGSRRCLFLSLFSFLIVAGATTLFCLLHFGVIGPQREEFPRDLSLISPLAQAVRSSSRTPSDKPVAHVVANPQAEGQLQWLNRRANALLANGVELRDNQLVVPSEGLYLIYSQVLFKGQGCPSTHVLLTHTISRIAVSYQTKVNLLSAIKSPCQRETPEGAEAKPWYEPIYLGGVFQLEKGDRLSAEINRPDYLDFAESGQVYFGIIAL
FLAG-tagged human vascular endothelial growth factor-A (FLAG-hVEGF-A) (human), sequence (P15692 other isoform, or with tags, fused parts or gaps): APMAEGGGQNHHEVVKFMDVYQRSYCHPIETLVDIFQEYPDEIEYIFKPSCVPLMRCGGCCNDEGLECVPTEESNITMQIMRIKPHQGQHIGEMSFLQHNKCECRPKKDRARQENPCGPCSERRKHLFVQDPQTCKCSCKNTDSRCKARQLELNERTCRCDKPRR

On to bevacizumab, for which, in assay [1], the Kd turned out to be 341 pM and the koff worked out at 0.000105 s⁻¹.

In assay [2], adalimumab yielded a Kd of 410 pM and a koff of 0.00036 s⁻¹.
